Experimental data taken from a protein production outcome set (Wang et al. 2014).

Experiment: label from the status in PepcDB records
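Also: failed if final PepcDB status was selected cloned or expressed and not failed if soluble or beyond.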

Sequence | protein production
MNFELSSPFSPTGDQPEAIAALSDGIKSGVPFQTLLGVTGSGKTFTIANVIKEVRKPTLILSHNKTLAAQLYSEFKAFFPNNAVEYFVSYYDYYQPEAYLPTTDTYIEKDLQINDEIDKLRLRATASLLSGRKDVIVVSSVSCLYGMADPTAFAEKVVHLEKGMRIDRDKLLRRFVDALYVNNKIEFNRGCFRVNGDTVDIFPAIETFDGAAYRIEFWDDEVDRISSFDPQTGQEIDEQDELNIYPTNLFVTTQERINTAIGQIDVDLGTQVNFLREIGKPYEAKRLYERVTFDLEMIRELGHCSGIENYSRYFDGRQAGERPFCLLDYFPKDFLLVVDESHVTIPQIRAMYGGDYSRKKNLVDYGFRLPAAMDNRPLTFDEFESLTPLAIYVSATPADYELEKSEGIVVDQVIRPTGLLDPVIEVRPTLNQIDDLMEEITQRAAVDERVLVTTLTKRMAEELTAYLTRMGIRCNYIHSDVDTLERIQIMDDLRKGLFDVLIGVNLLREGLDLPEVSLVAILDADKEGFLRSHRSLTQTAGRAARNVNGKVIFYADKITDSMRLTMDETARRREKQLAYNEKHGITPKQVIKNSVSLVAEKQQPVTGEPYAYVEPEPSLVADPVVQYMNRKQLEKAIERTKKQMMEAAKKLDFIEAAQFRDELVKLEDLLVTKKD | failed
MAARTLPDRFIARAPVPADAPAIARLIAACQEADGDEPDASAEEVLRDWEGLDLGQEAVLVVAPDGEAAAYADVLNRRYVQLSVYGYVHPRFRGMGLGTWLVQWGEEWIQDRMHLAPAEAQVTVQHYIRASSTSALRLMEQHGYRPVRDIWVMAITLDQPPPAPEWPEGITARTFVPGLDERATYEAVEEAFGDIWGRPPSTFERWLSMTQSERKDPELWLLAVETDSGHIVGTCLGQETAGKGWIGSVGVRRPWRGRGIALALLQEVFGVYYRRGVREVELSVDAESRTGAPRLYRRAGMHVKHRYVLHRKEIRPGIDLSTTAAHS | not failed
ATDSATAAPAAAATTQVQKEAADVLQVAVQGANAMRDIQFARLALFHGQPDSAKKLTDDAAALLAADDASWAKFVKTDAKAKMIADRYVIINASIALSEDYVATPEKESAIQSANEKLAKGDQKGAIDTLRLAGIGVIENQYLMPLNQTRKAVAQSQELLKAGKYYEANLVLKGAEEGIVVDSEMLVAGN | not failed
PYNKNGFKVGMKLEGVDPEHQSVYCVLTVAEVCGYRIKLHFDGYSDCYDFWVNADALDIHPVGWCEKTGHKLHPPKGYKEEEFNWQTYLKTCKAQAAPKSLFENQNITVIPSGF | not failed
MMITLVLSSFLSRDNIMRGMIYLIIATILAAIGWGASKMVVMTIPGDIFIGTRFLLASFVLAPFCFKQFRTLTGKQILALSGVGLVLSFALQVWVYAVSITTSLAEGAFIMSLAMIIAPIISWILFRNKPNKAFWIALPISILGMILLTLGNGWKLEASQLGFMLSALLLSMHFVLNKRIIGAITPLLSICVQLFVVGLSGCLYASLNSHPSFEITQHAVFWFLISTIVATAIRYLAQTLGQFSVNIETASLIMILEPVWTLVLSISVLHEVVAPQKLIGGAVIFLSLFVYIKLSRRLK | failed
MTNTIKKISTAQTYLNNNEIEKIIEVSKSLDLMASFYEADVFIDVLSKFDDEAIVVAHGRPKEKSMYCENVIGKKALIENEPGVIKCLKTGERVRDIKALTQEYKLVKQNIQPITLDDKVLAVLIVEKDISSEVKNEFNASEDEENKNLHQFIKLIGNNDFLVDNLNSAILIFDKNGKLKIKNRIATEIYKNLGFGYDIQDMHYNDLDIETNTFENILMDENYDETNEVSIGNMFFKIKTIYIKDDEFKVCKIVQDISDLKRKEEELVLKTVAIREAHHRVKNNLHTVISIIKKQSRLSQNDEVKQCLDNIINRVFAILSTHYLLSKEVDNNISIREGINLLVSNIQGGYLFSKDIDIRITGEDFKISGEKATAILLVINEILQNCYDHAFSDREHGTIQILINKDNDYRNIAIIDDGIGFDSNNINKNSLGTYIIDSYITQMLKGNIERKSSENGTEVLITIPTQINI | failed
MLARALFFVVLSTATFLFLWQFPSTGAQSIPHLDKLVHFGIFFVLALTFHRAFALSAKLSLLILVCYGFLIEIAQSYAPGRSADVYDWLADASGVVAYFILHHLLSKKSR | failed
MEIFGKTFREGRFVLKEKNFTVEFAVEKIHLGWKISGRVKGSPGRLEVLRTKAPEKVLVNNWQSWGPCRVVDAFSFKPPEIDPNWRYTASVVPDVLERNLQSDYFVAEEGKVYGFLSSKIAHPFFAVEDGELVAYLEYFDVEFDDFVPLEPLVVLEDPNTPLLLEKYAELVGMENNARVPKHTPTGWCSWYHYFLDLTWEETLKNLKLAKNFPFEVFQIDDAYEKDIGDWLVTRGDFPSVEEMAKVIAENGFIPGIWTAPFSVSETSDVFNEHPDWVVKENGEPKMAYRNWNKKIYALDLSKDEVLNWLFDLFSSLRKMGYRYFKIDFLFAGAVPGERKKNITPIQAFRKGIETIRKAVGEDSFILGCGSPLLPAVGCVDGMRIGPDTAPFWGEHIEDNGAPAARWALRNAITRYFMHDRFWLNDPDCLILREEKTDLTQKEKELYSYTCGVLDNMIIESDDLSLVRDHGKKVLKETLELLGGRPRVQNIMSEDLRYEIVSSGTLSGNVKIVVDLNSREYHLEKEGKSSLKKRVVKREDGRNFYFYEEGERE | not failed
MKISAIKTWLPLLIIIVLLGLFLGLGLNKYVSFASLRDNHEWLIAITKSHFYLVSFVFIIIYTVAVALSIPGAIFLTLIGGFLFGILWGTFLVVLSATLGATILFFAVQSSLGEVFSKRASGWVKRMRSGFKDNAFSYLLTLRLIPLFPFWVINIVSAVLGVSASTFIIATFIGIIPGSIVYVSVGNGLGELFAASLQPNLGIIFEPKFILPLLGLAALSLIPVFYKKKGKQGTEKMKDKDLFCDLAIIGGGSAGLSIAAGCSQLGLQVVLVEPNKMGGDCLNYGCIPSKTLLNTAKIFYQTKHSTVLGIQAKSVKIDFLQVMQQVHNVIACIAKNDSVERFTSLGVQVIQEAGHFIGPKQFKLKRKIIRAKHFVIATGSSPAIPPIQNLNKVSYLTNETIFNLKVQPEHLIVIGGGPIGCELAQAFAMLGSKVTILEAFTILPKDDADCVAIIRSQLESMQIALYEQIKINKIEESADKTISVHLENQDNPITITGSHLLVSTGRVANVDGLGLEKAGVQYTTRGINTNARLQTTNKKIYAIGDVTGPYQFTHMASYQAGIALRNIAFKWPAKVDYKAVPWVTYTEPELAHVGLLASEALKDPTLKITEFAFAEVDRAQAENKVNGKIKIITGKKAKILGVSIVGAHAGELILPWVIAVKERKSLRTFTDAIAAYPTFSEISKRVAGEYYKPFIFSSKIRTFVRWLNKLG | failed
MATAVKLSGISKTFGSLKANDNVSLSIEAGSIHALVGENGAGKSTLSNIIYGLLHPDSGTIEIDGKAVKFSSVRQAIEAGIGMVHQHFMLVPTLSVTENIILGKEESRLALPTRRIGKEIRQLSQQHGLEVDPDALVSTLSVGEQQRVEILKLLYRRAKLLILDEPTAVLSPPETARLFATLRSLAAEGRTVLLITHKLDEVLTVSDSVSVMRKGSLVGTVPTTSTSKEDLARMMVGRDVLLRTANAPQTPGKTVLSIDKLTYRSPLGIDKLTGLTLHVRAGEIYGIAGVEGNGQSELLSLLWGTFDRSGKTGGSITIDAQETLGKNPSEIAALGVSMIPEDRHKSAIIAEYGIEENLILGRHREKAFHRGIGFDRDAVHKNATAMIEQYDIRCAAGTNPPIASLSGGNQQKIVVAREMERPQLKLLVLAQPTRGVDIGAIEQIHKRIIDARKSGLAILLISSELEEIVALSTRIGCLYKGAIRHEFSETEVWRGRDHESGFEKEIGMHITLEHHHHHH | not failed
MASSDVLRQPDKNARPLALSGHVGFDSLPDQLVNKSTSQGFCFNILCIGETGIGKSTLMDTLFNTNFENFESSHFEPKVKLRAQTYDLQESNVRLKLTVVNTVGFGDQMNKQESYQHIVDYIDTQFESYLQEELKIKRSLHNYHDSRIHACLYFIAPSGHSLKSLDLVTMKKLDSKVNIIPVIAKADTISKSELHKFKIKIMSELVSNGVQIYQFPIDDETVAKINTAMNGHLPFAVVGSTEEVNIGNKMVKARQYPWGVVQVENENHCDFVKLREMLICVNMEDLREQTHTRHYELYRRCKLEEMGFKDTDPECKPVSLQQTYEAKRQEFLGELQRREEEMRQTFVQRVKEKEAELKDAERELQGKFEQLKRLHADEKSKLEEKRRSLEEEMSVFSKRKAATELLQAQSFNTSTNNKKDKDRKNSGFM | not failed
MNKVITDLDKALSALKDGDTILVGGFGLCGIPEYAIDYIYKKGIKDLIVVSNNCGVDDFGLGILLEKKQIKKIIASYVGENKIFESQMLNGEIEVVLTPQGTLAENLHAGGAGIPAYYTPTGVGTLIAQGKESREFNGKEYILERAITGDYGLIKAYKSDTLGNLVFRKTARNFNPLCAMAAKICVAEVEEIVPAGELDPDEIHLPGIYVQHIYKGEKFEKRIEKITTRSTK | failed
MQGNLTALLITAIIVLTVVCIGFLAGRDKSSRTSVEEWSVGGRRFGGLLVWFLVGADLYTAYTFLGLTSTAFTGGSVAFFAIPYSVLAYFIAYFFLPKLWKVAKIHKLTTLADYARERFNSKLLASLVAIVGVLMLIPYICLQLSGIQDTLQVAGTGYINVKFVVIISFILVALYTFFSGIKGPTYTAIIKDILVWVIMLFMVVSLPLIHFNGWTPMIDTLVKEAPQMLTIPSEGPKGIPWFITASIVSALALFMWAHAATGVFTAKSADAVRKNSMFLPLYNIVLILVIFLGFIAFLVLPEDTNPRLALLHLIQTSYGGVAQGFAYATIALASLIPCSIMAIGASNLFANNLYRDLIHPNVSQSKLTLVTRSMVFVVIGLALLFGMLFPTALVTLQLLGVSGMVQIFPAIAVSLFWKNQTKEATVIGLLAGLAVTFIVYITQSAHGIYEGFWGLAANMIAVVILNPLFVKNAGSNPVIEGLFGKKQDANPNQKGA | failed
MESADSGRSDPVKGDDPGPSFVSSPPATPSRYESQKRRDWNTFLQYLKNHKPPLALSRCSGAHVIEFLKYLDQFGKTKVHVAACPYFGHQQPPSPCSCPLKQAWGSLDALIGRLRAAYEENGGRPDSNPFAARAVRIYLREVRESQAKARGIPYEKKKRKRPPTVTTVRVDVASSRQSDGDPCNVGAPSVAEAVPP | failed
FEKVYHLKLSIKGITPQIWRRIQVPENYTFLDLHKAIQAVMDWEDYHLHEFEMVNPKTGMLDKIGAEGDDFDAFGGPLVSEKKAKLSDYFTLENKEALYTYDFGDNWQVKVRLEKILPRKEGVEYPICTAGKRAAVPEDSGGVWGYEEMLEVLKDSEHEEYEDTVLWLGDDFDPEYFDPKDVS | failed
MKQGPSSEDDCFSLLKQFEHVLESDPLIDEVGFIHPSQFTMLDKEAGFSNEFQPNNGTSSKFWNQDHKLGISTDILVQLCKDAKHVFLLALQEYKSHGNACDESQIKNISCSPCIPESDVMKHSQSVLLLSSDFGTAWNARKLILSKKDHLSAFTEELRLSGLILSNSPKSESTWSHRRWIIKMISQSFSTLQEIITKESELVESIGERSKMNYRAWYHRCWLVSYMTIEQVIQELNKSKRWAGLHVADSSCFHYRRVRAAYSVDVIVRLMLKILESLYVKGSSAYDKTEARKIWKEELDWNEELVERYVGREALWLHRRFLSLNWIMYFACNHSDASPETGESIIMNEEIAIFIDNEIRLLDSSMTVPDTKFEDFQAQALHAAVYTLWLTKSIPVLWRMLEEKLGTEKVKCVLNTIAQERPSLLHHLVNV | failed
MKMKHMKPYTTMKTVLSTLAIALAFGPLHNAQACTRILYETGNQSYISGRSMDWADPSAATALWVFPKGMKRDGTVGDNPIKWSAKYGSIIVSFYDAGTADGMNEKGLVANMLYLKEAKWGDATKAGKPTLTAGAWAQYFLDNYATVEEAVTAMANPPFTIIAPSLPNGDAAALHLSISDVNGDSAIFEYIDGKLVIHHGSQYKVMTNSPTFDQQLALNTYWQQIGGSKFLPGTINAADRFVRASYALSASPKYRDNDLALASVFSQIRAVSVPLGITDPDRPNLAMTLWRTFADHTAKIYYFESAVFPAVSWLDMSKVDLTEGAAPKVVRVERGQPLAGELSAALKPAEPFKWLGAE | failed
LRLSCFIDQPTGLFNRSRLQEDIHEALASSVDYQLVVVDMITSAFLNDIVKALGYDFSQDLVTAIKERIESLLPRTCSLYKVGPTRFGFLLPGDRPPEHLFRTILEDFETPVECRGIPVQMQVGLGVVTLNRDPNEEQDWMRMVISAADDARDRDLGWA | failed
